Reference: patent US20200369765A1 (INNATE PHARMA, published 2020)

T1: Human Siglec-5 (human, UniProt O15389 17-551)
T1 construct: Expressed on transfected CHO cells; also called HuSiglec-5
T1 sequence: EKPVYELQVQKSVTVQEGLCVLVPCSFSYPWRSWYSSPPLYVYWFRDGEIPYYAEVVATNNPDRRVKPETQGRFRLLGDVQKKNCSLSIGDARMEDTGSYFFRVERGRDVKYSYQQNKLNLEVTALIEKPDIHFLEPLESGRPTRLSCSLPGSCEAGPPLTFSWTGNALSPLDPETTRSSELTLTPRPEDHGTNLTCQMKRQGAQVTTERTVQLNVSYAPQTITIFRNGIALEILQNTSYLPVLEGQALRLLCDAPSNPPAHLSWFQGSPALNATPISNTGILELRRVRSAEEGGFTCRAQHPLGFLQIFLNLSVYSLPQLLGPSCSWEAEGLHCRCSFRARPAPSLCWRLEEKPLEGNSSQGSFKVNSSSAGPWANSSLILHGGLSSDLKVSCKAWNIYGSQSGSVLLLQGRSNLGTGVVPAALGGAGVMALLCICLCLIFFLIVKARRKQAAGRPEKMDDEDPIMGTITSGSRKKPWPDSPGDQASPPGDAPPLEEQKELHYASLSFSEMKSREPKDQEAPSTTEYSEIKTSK

T2: Human Siglec-10 (human, UniProt Q96LC7 17-697)
T2 construct: Expressed on transfected CHO cells; also called HuSiglec-10
T2 sequence: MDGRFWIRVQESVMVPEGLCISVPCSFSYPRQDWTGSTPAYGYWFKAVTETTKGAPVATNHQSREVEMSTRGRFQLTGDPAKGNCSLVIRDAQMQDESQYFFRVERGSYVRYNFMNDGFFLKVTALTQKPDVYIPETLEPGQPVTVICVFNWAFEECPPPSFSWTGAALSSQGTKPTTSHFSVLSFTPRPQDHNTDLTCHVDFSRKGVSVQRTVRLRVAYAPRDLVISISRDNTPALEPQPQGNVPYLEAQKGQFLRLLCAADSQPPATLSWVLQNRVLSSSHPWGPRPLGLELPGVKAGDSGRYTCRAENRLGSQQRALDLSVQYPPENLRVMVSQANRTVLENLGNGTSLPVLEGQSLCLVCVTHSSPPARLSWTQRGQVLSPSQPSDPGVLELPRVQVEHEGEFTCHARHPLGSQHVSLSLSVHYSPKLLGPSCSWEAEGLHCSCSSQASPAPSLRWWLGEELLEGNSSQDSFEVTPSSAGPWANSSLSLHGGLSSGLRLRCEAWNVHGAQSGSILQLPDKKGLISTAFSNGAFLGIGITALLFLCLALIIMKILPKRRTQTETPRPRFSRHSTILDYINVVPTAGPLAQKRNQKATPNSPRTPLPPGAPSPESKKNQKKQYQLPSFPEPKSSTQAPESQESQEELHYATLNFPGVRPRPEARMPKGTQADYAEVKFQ

T3: Human Siglec-11 (human, UniProt Q96RL6 29-698)
T3 construct: Expressed on transfected CHO cells; also called HuSiglec-11
T3 sequence: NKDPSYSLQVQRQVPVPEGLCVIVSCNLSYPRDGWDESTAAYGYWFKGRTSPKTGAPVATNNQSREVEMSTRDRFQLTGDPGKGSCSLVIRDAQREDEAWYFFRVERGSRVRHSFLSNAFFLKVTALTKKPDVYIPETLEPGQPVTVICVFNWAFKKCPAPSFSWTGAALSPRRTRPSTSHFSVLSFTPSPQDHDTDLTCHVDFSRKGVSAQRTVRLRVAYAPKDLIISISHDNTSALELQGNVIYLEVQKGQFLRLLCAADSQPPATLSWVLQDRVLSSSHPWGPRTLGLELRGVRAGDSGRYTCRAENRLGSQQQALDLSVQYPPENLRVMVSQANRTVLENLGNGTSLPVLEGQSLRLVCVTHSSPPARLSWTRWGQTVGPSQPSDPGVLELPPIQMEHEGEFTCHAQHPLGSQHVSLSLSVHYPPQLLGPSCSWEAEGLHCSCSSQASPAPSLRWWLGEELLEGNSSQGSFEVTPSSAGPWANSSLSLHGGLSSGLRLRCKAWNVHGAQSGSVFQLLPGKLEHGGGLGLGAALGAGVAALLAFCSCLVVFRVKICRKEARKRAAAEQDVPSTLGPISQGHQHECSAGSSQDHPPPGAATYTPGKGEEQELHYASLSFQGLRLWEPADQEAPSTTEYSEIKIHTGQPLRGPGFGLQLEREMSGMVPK


Legend:
[1] = target: T4, Human Siglec-3 (human, UniProt P20138 18-364); assay: flow cytometry, CHO transfectants
T4 construct: Expressed on transfected CHO cells; also called HuSiglec-3; CD33
T4 sequence (P20138 18-364 R69G): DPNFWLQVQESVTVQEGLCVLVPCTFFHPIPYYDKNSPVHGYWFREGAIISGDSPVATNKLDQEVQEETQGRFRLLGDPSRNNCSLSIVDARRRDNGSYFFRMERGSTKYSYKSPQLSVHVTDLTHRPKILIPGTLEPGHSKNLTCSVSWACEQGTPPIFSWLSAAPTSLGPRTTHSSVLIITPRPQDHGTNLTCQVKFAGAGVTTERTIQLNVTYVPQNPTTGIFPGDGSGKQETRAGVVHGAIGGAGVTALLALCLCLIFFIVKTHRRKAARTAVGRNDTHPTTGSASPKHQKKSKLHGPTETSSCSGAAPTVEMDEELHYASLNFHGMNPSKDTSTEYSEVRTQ

[2] = target: T1, Human Siglec-5; assay: flow cytometry, CHO transfectants
[3] = target: T5, Human Siglec-6 (human, UniProt O43699 27-453); assay: flow cytometry, CHO transfectants
T5 construct: Expressed on transfected CHO cells; also called HuSiglec-6
T5 sequence (O43699 other isoform, or with tags, fused parts or gaps): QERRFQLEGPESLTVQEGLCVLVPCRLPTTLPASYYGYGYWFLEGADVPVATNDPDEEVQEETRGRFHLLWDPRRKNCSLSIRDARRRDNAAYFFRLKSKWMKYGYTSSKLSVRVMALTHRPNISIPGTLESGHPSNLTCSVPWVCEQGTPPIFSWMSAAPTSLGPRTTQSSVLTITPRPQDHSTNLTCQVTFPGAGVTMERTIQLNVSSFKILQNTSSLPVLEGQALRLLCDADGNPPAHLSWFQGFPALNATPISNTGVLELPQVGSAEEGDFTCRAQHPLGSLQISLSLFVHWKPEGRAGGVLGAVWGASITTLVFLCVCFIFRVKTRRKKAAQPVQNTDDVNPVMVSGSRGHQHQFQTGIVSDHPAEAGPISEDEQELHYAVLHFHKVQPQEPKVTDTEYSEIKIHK

[4] = target: T6, Human Siglec-8 (human, UniProt Q9NYZ4 17-499); assay: flow cytometry, CHO transfectants
T6 construct: Expressed on transfected CHO cells; also called HuSiglec-8
T6 sequence (Q9NYZ4 17-499): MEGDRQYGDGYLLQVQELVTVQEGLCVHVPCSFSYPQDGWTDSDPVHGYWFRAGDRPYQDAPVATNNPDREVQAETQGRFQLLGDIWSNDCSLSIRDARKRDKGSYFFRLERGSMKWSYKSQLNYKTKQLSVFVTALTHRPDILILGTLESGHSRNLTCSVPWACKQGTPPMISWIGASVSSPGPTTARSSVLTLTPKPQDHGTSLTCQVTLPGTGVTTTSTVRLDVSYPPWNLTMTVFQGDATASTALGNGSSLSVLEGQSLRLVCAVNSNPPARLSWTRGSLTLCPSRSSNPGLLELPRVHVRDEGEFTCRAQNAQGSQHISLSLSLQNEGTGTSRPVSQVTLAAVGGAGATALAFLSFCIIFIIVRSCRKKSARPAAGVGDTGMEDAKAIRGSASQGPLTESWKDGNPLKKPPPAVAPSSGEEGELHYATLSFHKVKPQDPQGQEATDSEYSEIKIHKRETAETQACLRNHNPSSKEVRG

[5] = target: T2, Human Siglec-10; assay: flow cytometry, CHO transfectants
[6] = target: T3, Human Siglec-11; assay: flow cytometry, CHO transfectants
[7] = target: T7, Human Siglec-12 (human, UniProt Q96PQ1 19-595); assay: flow cytometry, CHO transfectants
T7 construct: Expressed on transfected CHO cells; also called HuSiglec-12
T7 sequence (Q96PQ1 19-595): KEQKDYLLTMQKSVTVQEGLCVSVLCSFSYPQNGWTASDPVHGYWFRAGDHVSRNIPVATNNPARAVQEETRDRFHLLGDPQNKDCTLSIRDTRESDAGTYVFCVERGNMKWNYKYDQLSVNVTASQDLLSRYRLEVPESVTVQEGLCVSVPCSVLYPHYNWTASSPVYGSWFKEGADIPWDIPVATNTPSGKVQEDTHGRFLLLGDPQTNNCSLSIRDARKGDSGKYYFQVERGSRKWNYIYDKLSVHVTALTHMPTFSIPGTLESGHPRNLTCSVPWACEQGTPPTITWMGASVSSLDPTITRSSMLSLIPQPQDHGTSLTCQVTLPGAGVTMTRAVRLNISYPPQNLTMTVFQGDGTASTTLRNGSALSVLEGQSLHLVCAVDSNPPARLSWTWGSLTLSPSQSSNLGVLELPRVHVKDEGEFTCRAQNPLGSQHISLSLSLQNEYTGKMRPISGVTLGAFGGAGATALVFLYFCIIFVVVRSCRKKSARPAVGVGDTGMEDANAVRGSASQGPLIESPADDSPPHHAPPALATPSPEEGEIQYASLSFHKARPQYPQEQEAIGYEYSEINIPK

[8] = target: T8, Human Siglec-9 mutant M2 (human, UniProt Q9Y336 18-463); assay: flow cytometry, HEK293T transfectants
T8 construct: Expressed on HEK293T cells; also called Mutant 2

[9] = target: T9, Human Siglec-9 N-terminal V-set Ig-like domain (human); assay: flow cytometry, HEK293T cells expressing single Siglec-9 domains
T9 construct: expressed on HEK293T cells

| Binder | binding result [1] | binding result [2] | binding result [3] | binding result [4] | binding result [5] | binding result [6] | binding result [7] | binding result [8] | binding result [9] |
| --- | --- | --- | --- | --- | --- | --- | --- | --- | --- |
| mAbE (antibody, human IgG1, V domains shown) VH: DVQLVESGGGLVQPGGSRKLSCAASGFTFSTFGMHWVRQAPEKGLEWVAYISSGSNAIYYADTVKGRFTISRDNPKNTLFLQMTSLRSEDTAMYYCASPGYGAWFAYWGQGTLVTVSA VL: ENVLTQSPAIMSASPGEKVTMTCRASSSVSSAYLHWYQQKSGASPKLWIYSTSNLASGVPARFSGSGSGTSYSLTISSVEAEDAATYYCQQYSAYPYTFGGGTKLEIK | no binding | no binding | no binding | no binding | no binding | no binding | no binding | binds | binds |
| mAbD (antibody, human IgG1, V domains shown) VH: QIQLVQSGPELKKPGETVKISCKASGYTFTDYSMHWVKQAPGKGLKWMGWIITETGEPTYADDFRGRFAFSLETSANTAYLQINNLKNEDTATYFCARDFDGYWGQGTTLTVSS VL: DILMTQSPASLSASVGETVTITCRASENIYSYLAWYQQKRGKSPQFLVYNAKTLTEGVPSRFRGSGSGTQFSLKINSLQPEDFGTYYCQHHYGFPWTFGGGTKLEIK | no binding | no binding | no binding | no binding | no binding | no binding | no binding | binds | binds |
| mAbC (antibody, human IgG1, V domains shown) VH: QIQLVQSGPELKKPGETVKISCKASGYTFTNYEMNWVKEAPGKGLKWMGWINTYTGESTYADDFKGRFAFSLETSASTVYLQINNLKDEDVATYFCVRDDYGRSYGFAYWGQGTLVTVSA VL: NIVLTQSPASLTVSLGQRANISCRASESVDSYGNSFMHWYQQKPGQPPKLLIYLASKLESGVPARFSGSGSRTDFTLTIDPVETDDAATYYCHQNNEDPPWTFGGGTKLEIK | no binding | no binding | no binding | no binding | no binding | no binding | no binding | binds | binds |
| mAbA (antibody, human IgG1, V domains shown) VH: QVQLQQPGAELVKPGSPVKLSCKASYFTFTSYWMHWVRQRPGQGLEWIGEINPSNGHTNYNEKFESKATLTVDRSSSTAYMQLSSLTSEDSAVFYCANGVESYDFDDALDYWGQGTSVTVSS VL: DIQMTQTTSSLSASLGDRVTISCRASQDINNYLNWYQQKPDGTIKLLIYYTSRLHSGVPSRFSGSGSGTDYSLTINNLEQEDIATYFCQQGNTLPFTFGGGTKLEIK | no binding | no binding | no binding | no binding | no binding | no binding | no binding | binds | binds |
| mAbB (antibody, human IgG1, V domains shown) VH: QVQLQQPGAELVKPGASVKLSCKASVYTFTSYWMHWVKQRPGQGLEWIGEINPSNGHTNYNEKFKTKAKLTVDKSSSTAYMQLSSLTSEDSAVYFCANGVETYDFDDAMDYWGQGTSVTVSS VL: DIQMTQTTSSLSASLGDRVTISCRASQDINNYLNWYQQKPDGTVKLLIYFTSRLHSGVPSRFSGSGSGTDYSLTISNLEQEDIATYFCQQGDTFPFTFGGGTKLEIK | no binding | no binding | no binding | no binding | no binding | no binding | no binding | binds | binds |
